Results as given in patent US20080182978A1, “ANTI-NGF ANTIBODIES AND METHODS USING SAME” (RINAT NEUROSCIENCE CORP, priority 2002, published 2008).

Assay: Dose response of E3 on body weight in arthritic rats (Example 9)
Assay type: in vivo, rat
Experimental: The ability of E3 to produce reduction in pain in arthritic rats was further investigated by examining the dose response relationship between E3 administration and pain reduction. Rats were treated with adjuvant to induce arthritis as described above. Ten rats not injected with adjuvant were used as non-arthritic controls. Fourteen days after adjuvant injection, animals were qualified into the study based on the criteria stated above, randomized into eight groups of ten rats and tested for the intensity of their vocalization response. They were then dosed on day 14 with saline, or 0.003 mg/kg, 0.01 mg/kg, 0.03 mg/kg, 0.1 mg/kg, 0.3 mg/kg, 1 mg/kg or 5 mg/kg of E3 antibody as described above. Animals were tested for their vocalization response on days 16, 18, 20, and 24. Animals were redosed with saline or the same dose of E3 on day 18 after the vocalization testing. Animals were also weighed each day, starting at day 14. Thus, animals were dosed twice with a given dose of antibody or saline on days 14 and 18, and assessed for pain five times, on days 14, 16, 18, 20 and 24. Data are shown in Tables 20-22 and in FIGS. 20-22.
The effect of treating animals with various doses of anti-NGF antibody E3 on body weight was statistically analyzed by using two-way ANOVA to compare the results obtained pairwise between arthritic animals treated with vehicle with those treated with a given dose of antibody E3. […] At all higher dose of E3, the difference between treated and untreated arthritic animals was significant (p= or <0.0001). […]

[1] = E3 0.003 mg/kg on days 14+18, day 14
[2] = E3 0.003 mg/kg on days 14+18, day 15
[3] = E3 0.003 mg/kg on days 14+18, day 16
[4] = E3 0.003 mg/kg on days 14+18, day 17
[5] = E3 0.003 mg/kg on days 14+18, day 18
[6] = E3 0.003 mg/kg on days 14+18, day 20
[7] = E3 0.003 mg/kg on days 14+18, day 21
[8] = E3 0.003 mg/kg on days 14+18, day 23
[9] = E3 0.003 mg/kg on days 14+18, day 24
[10] = E3 0.01 mg/kg on days 14+18, day 14
[11] = E3 0.01 mg/kg on days 14+18, day 15
[12] = E3 0.01 mg/kg on days 14+18, day 16
[13] = E3 0.01 mg/kg on days 14+18, day 17
[14] = E3 0.01 mg/kg on days 14+18, day 18
[15] = E3 0.01 mg/kg on days 14+18, day 20
[16] = E3 0.01 mg/kg on days 14+18, day 21
[17] = E3 0.01 mg/kg on days 14+18, day 23
[18] = E3 0.01 mg/kg on days 14+18, day 24
[19] = E3 0.03 mg/kg on days 14+18, day 14
[20] = E3 0.03 mg/kg on days 14+18, day 15
[21] = E3 0.03 mg/kg on days 14+18, day 16
[22] = E3 0.03 mg/kg on days 14+18, day 17
[23] = E3 0.03 mg/kg on days 14+18, day 18
[24] = E3 0.03 mg/kg on days 14+18, day 20
[25] = E3 0.03 mg/kg on days 14+18, day 21
[26] = E3 0.03 mg/kg on days 14+18, day 23
[27] = E3 0.03 mg/kg on days 14+18, day 24
[28] = E3 0.1 mg/kg on days 14+18, day 14
[29] = E3 0.1 mg/kg on days 14+18, day 15

B1: E3: humanized, affinity matured anti-NGF antagonist antibody; variable regions SEQ ID NO:1 and 2; human IgG2a (A330P331 to S330S331), kappa (antibody, V domains shown)
VH: QVQLQESGPGLVKPSETLSLTCTVSGFSLIGYDLNWIRQPPGKGLEWIGIIWGDGTTDYNSAVKSRVTISKDTSKNQFSLKLSSVTAADTAVYYCARGGYWYATSYYFDYWGQGTLVTVS
VL: DIQMTQSPSSLSASVGDRVTITCRASQSISNNLNWYQQKPGKAPKLLIYYTSRFHSGVPSRFSGSGSGTDFTFTISSLQPEDIATYYCQQEHTLPYTFGQGTKLEIKRT
modifications: human IgG2a constant (A330S/P331S) and kappa constant missing
E3 0.003 mg/kg on days 14+18, day 0
  Body weight normalized to day 0: 100.00
E3 0.003 mg/kg on days 14+18, day 1
  Body weight normalized to day 0: 98.37
E3 0.003 mg/kg on days 14+18, day 2
  Body weight normalized to day 0: 102.47
E3 0.003 mg/kg on days 14+18, day 3
  Body weight normalized to day 0: 106.54
E3 0.003 mg/kg on days 14+18, day 4
  Body weight normalized to day 0: 110.09
E3 0.003 mg/kg on days 14+18, day 7
  Body weight normalized to day 0: 121.29
E3 0.003 mg/kg on days 14+18, day 8
  Body weight normalized to day 0: 124.44
E3 0.003 mg/kg on days 14+18, day 9
  Body weight normalized to day 0: 125.91
E3 0.003 mg/kg on days 14+18, day 10
  Body weight normalized to day 0: 123.30
E3 0.003 mg/kg on days 14+18, day 11
  Body weight normalized to day 0: 119.55
[1]
  Body weight normalized to day 0: 111.50
  Body weight normalized to day 14: 100.00
[2]
  Body weight normalized to day 0: 110.63
  Body weight normalized to day 14: 99.20
[3]
  Body weight normalized to day 0: 111.08
  Body weight normalized to day 14: 99.58
[4]
  Body weight normalized to day 0: 112.06
  Body weight normalized to day 14: 100.46
[5]
  Body weight normalized to day 0: 112.60
  Body weight normalized to day 14: 100.90
[6]
  Body weight normalized to day 0: 114.17
  Body weight normalized to day 14: 102.26
[7]
  Body weight normalized to day 0: 115.25
  Body weight normalized to day 14: 103.16
[8]
  Body weight normalized to day 0: 118.48
  Body weight normalized to day 14: 106.09
[9]
  Body weight normalized to day 0: 118.58
  Body weight normalized to day 14: 106.16
E3 0.01 mg/kg on days 14+18, day 0
  Body weight normalized to day 0: 100.00
E3 0.01 mg/kg on days 14+18, day 1
  Body weight normalized to day 0: 98.86
E3 0.01 mg/kg on days 14+18, day 2
  Body weight normalized to day 0: 102.61
E3 0.01 mg/kg on days 14+18, day 3
  Body weight normalized to day 0: 106.29
E3 0.01 mg/kg on days 14+18, day 4
  Body weight normalized to day 0: 110.61
E3 0.01 mg/kg on days 14+18, day 7
  Body weight normalized to day 0: 121.59
E3 0.01 mg/kg on days 14+18, day 8
  Body weight normalized to day 0: 124.47
E3 0.01 mg/kg on days 14+18, day 9
  Body weight normalized to day 0: 125.82
E3 0.01 mg/kg on days 14+18, day 10
  Body weight normalized to day 0: 123.87
E3 0.01 mg/kg on days 14+18, day 11
  Body weight normalized to day 0: 121.20
[10]
  Body weight normalized to day 0: 111.80
  Body weight normalized to day 14: 100.00
[11]
  Body weight normalized to day 0: 110.85
  Body weight normalized to day 14: 99.18
[12]
  Body weight normalized to day 0: 110.98
  Body weight normalized to day 14: 99.33
[13]
  Body weight normalized to day 0: 111.42
  Body weight normalized to day 14: 99.69
[14]
  Body weight normalized to day 0: 112.54
  Body weight normalized to day 14: 100.69
[15]
  Body weight normalized to day 0: 114.82
  Body weight normalized to day 14: 102.70
[16]
  Body weight normalized to day 0: 114.76
  Body weight normalized to day 14: 102.63
[17]
  Body weight normalized to day 0: 116.76
  Body weight normalized to day 14: 104.41
[18]
  Body weight normalized to day 0: 116.56
  Body weight normalized to day 14: 104.23
E3 0.03 mg/kg on days 14+18, day 0
  Body weight normalized to day 0: 100.00
E3 0.03 mg/kg on days 14+18, day 1
  Body weight normalized to day 0: 98.67
E3 0.03 mg/kg on days 14+18, day 2
  Body weight normalized to day 0: 102.05
E3 0.03 mg/kg on days 14+18, day 3
  Body weight normalized to day 0: 105.31
E3 0.03 mg/kg on days 14+18, day 4
  Body weight normalized to day 0: 109.24
E3 0.03 mg/kg on days 14+18, day 7
  Body weight normalized to day 0: 117.15
E3 0.03 mg/kg on days 14+18, day 8
  Body weight normalized to day 0: 118.52
E3 0.03 mg/kg on days 14+18, day 9
  Body weight normalized to day 0: 118.60
E3 0.03 mg/kg on days 14+18, day 10
  Body weight normalized to day 0: 115.26
E3 0.03 mg/kg on days 14+18, day 11
  Body weight normalized to day 0: 112.94
[19]
  Body weight normalized to day 0: 108.37
  Body weight normalized to day 14: 100.00
[20]
  Body weight normalized to day 0: 108.68
  Body weight normalized to day 14: 100.34
[21]
  Body weight normalized to day 0: 109.21
  Body weight normalized to day 14: 100.89
[22]
  Body weight normalized to day 0: 110.16
  Body weight normalized to day 14: 101.80
[23]
  Body weight normalized to day 0: 111.14
  Body weight normalized to day 14: 102.70
[24]
  Body weight normalized to day 0: 113.17
  Body weight normalized to day 14: 104.51
[25]
  Body weight normalized to day 0: 113.80
  Body weight normalized to day 14: 105.08
[26]
  Body weight normalized to day 0: 114.93
  Body weight normalized to day 14: 106.14
[27]
  Body weight normalized to day 0: 114.99
  Body weight normalized to day 14: 106.23
E3 0.1 mg/kg on days 14+18, day 0
  Body weight normalized to day 0: 100.00
E3 0.1 mg/kg on days 14+18, day 1
  Body weight normalized to day 0: 99.31
E3 0.1 mg/kg on days 14+18, day 2
  Body weight normalized to day 0: 102.87
E3 0.1 mg/kg on days 14+18, day 3
  Body weight normalized to day 0: 106.26
E3 0.1 mg/kg on days 14+18, day 4
  Body weight normalized to day 0: 110.20
E3 0.1 mg/kg on days 14+18, day 7
  Body weight normalized to day 0: 120.50
E3 0.1 mg/kg on days 14+18, day 8
  Body weight normalized to day 0: 123.48
E3 0.1 mg/kg on days 14+18, day 9
  Body weight normalized to day 0: 125.46
E3 0.1 mg/kg on days 14+18, day 10
  Body weight normalized to day 0: 123.95
E3 0.1 mg/kg on days 14+18, day 11
  Body weight normalized to day 0: 121.98
[28]
  Body weight normalized to day 0: 113.90
  Body weight normalized to day 14: 100.00
[29]
  Body weight normalized to day 0: 113.66
  Body weight normalized to day 14: 99.83
E3 0.1 mg/kg on days 14+18, day 16
  Body weight normalized to day 0: 115.06
